# Where a chain is given by its changes, count along the chain named.
# T1: human CDH6 with EC1 removed, on HEK293T cells (HEK293T-hCDH6-EC1 deletion) (human, UniProt P55285 160-790)
# T1 construct: Signal peptide not removed here
# T1 sequence: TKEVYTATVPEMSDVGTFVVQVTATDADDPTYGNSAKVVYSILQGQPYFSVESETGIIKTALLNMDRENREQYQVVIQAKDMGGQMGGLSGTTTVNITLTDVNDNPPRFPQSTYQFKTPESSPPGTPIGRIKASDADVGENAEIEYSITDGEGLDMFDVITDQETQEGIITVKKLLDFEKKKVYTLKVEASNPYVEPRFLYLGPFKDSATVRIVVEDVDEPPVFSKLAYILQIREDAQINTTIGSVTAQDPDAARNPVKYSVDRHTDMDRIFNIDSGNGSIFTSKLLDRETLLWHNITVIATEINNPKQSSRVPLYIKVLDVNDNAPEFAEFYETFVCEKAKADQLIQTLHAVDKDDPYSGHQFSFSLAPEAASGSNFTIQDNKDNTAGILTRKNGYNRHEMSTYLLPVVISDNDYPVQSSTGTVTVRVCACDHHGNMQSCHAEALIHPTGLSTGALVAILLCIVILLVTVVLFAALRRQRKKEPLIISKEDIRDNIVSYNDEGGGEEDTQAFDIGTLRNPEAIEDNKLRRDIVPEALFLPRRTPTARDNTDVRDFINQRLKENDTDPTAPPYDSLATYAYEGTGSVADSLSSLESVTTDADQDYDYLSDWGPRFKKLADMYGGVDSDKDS
# T2: human CDH6 with EC5 removed, on HEK293T cells (HEK293T-hCDH6-EC5 deletion) (human, UniProt P55285 54-790)
# T2 construct: Signal peptide not removed here
# T2 sequence: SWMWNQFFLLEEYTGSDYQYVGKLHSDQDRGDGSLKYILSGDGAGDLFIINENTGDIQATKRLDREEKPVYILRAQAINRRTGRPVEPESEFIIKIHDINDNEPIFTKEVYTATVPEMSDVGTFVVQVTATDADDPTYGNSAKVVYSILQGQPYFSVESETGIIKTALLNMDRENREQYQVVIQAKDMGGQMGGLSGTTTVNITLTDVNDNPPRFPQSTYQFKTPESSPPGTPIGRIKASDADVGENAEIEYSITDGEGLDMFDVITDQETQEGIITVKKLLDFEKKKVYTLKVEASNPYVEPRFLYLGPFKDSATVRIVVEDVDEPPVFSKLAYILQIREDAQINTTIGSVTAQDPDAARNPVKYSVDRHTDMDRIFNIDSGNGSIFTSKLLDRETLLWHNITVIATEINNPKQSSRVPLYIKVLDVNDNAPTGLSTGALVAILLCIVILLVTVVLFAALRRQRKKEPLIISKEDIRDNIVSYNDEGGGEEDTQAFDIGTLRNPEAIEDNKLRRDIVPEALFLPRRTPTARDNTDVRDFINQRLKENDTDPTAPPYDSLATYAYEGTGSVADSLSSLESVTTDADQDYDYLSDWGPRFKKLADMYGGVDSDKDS
# T3: his-tagged human CDH6 extracellular region protein (hCDH6 ECD-his) (human, UniProt P55285 19-615)
# T3 construct: also called Human CDH6-his; hCDH6-his; not shown: his tag
# T3 sequence: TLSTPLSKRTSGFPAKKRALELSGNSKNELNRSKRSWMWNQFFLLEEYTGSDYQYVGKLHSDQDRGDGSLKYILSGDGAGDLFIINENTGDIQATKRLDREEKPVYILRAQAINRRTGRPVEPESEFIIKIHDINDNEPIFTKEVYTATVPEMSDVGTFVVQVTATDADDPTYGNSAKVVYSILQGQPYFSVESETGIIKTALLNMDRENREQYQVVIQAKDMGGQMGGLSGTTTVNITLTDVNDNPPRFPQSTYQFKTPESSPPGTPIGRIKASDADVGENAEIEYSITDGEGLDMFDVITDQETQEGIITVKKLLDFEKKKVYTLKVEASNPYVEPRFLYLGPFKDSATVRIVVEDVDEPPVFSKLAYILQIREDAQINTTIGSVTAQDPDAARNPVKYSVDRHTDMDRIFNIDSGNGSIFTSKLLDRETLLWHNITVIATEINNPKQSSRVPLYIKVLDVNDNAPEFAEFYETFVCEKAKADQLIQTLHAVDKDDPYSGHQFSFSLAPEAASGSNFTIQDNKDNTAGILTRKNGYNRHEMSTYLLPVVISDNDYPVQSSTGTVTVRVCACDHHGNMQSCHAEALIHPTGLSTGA
# B1: CHI-CDH6-4 (antibody, human IgG1, kappa, V domains shown)
# VH: QVQLQQSGPELVKPGASVKISCKASGYAFSNFWMNWVKQRPGKGLEWIGWIYPGDGDTNYNGKFKDKATLTADKSSSTAYIQLSSLTSEDSAVYFCARLYDAWGFFDYWGQGTTLTVSS
# VL: QIVLTQSPAIMSASPGQKVTITCSASSSVNYMHWYQQKLGSSPKLWIYDKSKLAPGVPARFSGSGSGTSYSLTISSMEAEDAASYFCHQWSSYPPMTFGGGTKLEIKR
# notes: also called CH1-CDH6-4; chimeric antibody of murine CDH6-4
# B2: CHI-CDH6-11 (antibody, human IgG1, kappa, V domains shown)
# VH: QIQLQQSGPELVKPGASVRISCKASGYTFTDYYITWVKLRPGQGLEWIGWIYPGSVNIKYNEKFKGKATLTVDTSSSTAYMQLNSLTSEDSAVYFCARGGYSWFPYWGQGTLVTVSA
# VL: NIVMTQSPKSMSMSVGERVTLSCKASENVHTYVSWYQQKPEQSPKLLFYGASTRNTGVPDRFTGSGSATDFTLTISSVQAEDLADYYCGQSYSYPYTFGSGTKLEIKR
# notes: also called chimeric antibody of murine CDH6-11
# B3: CHI-CDH6-6 (antibody, human IgG1, kappa, V domains shown)
# VH: EVQLQQSGPELVKPGDSVKMSCKASGYTFTDYYMAWVRQSHRKSLEWIGYIFPNSGGTDYSQKFKGKATLTVDKSSSTVYMELHSLTSEDSAVYYCARELGADYGDYYAMDHWGQGTSVSVSS
# VL: DIQMTQSPASLSASVGETVTITCRASENIDSYLAWYQQKQGKSPQLLVYSATLLADGVPSRFSGSGSGTQYSLKINSLKSEDVARYYCQHYYRTPPTFGSGTKLEIKR
# notes: also called CHI-hCDH6-6; chimeric antibody of murine CDH6-6
# B4: CHI-CDH6-7 (antibody, human IgG1, kappa, V domains shown)
# VH: EVKLVESGGGLVKPGGSLKVSCAASGFTFSDHGMAWVRQAPGKGPEWVAFISNLAYSIYYADTVTGRFTISRENAKNTLYLEMSSLRSEDTAMYYCARVYVKWYFDVWGAGTTVTVSS
# VL: B3 VL with Y49F, S50A, K79Q, R93S, P96L, S100A, I106L
# notes: also called CH1-CDH6-7; chimeric antibody of murine CDH6-7
# B5: CHI-CDH6-8 (antibody, human IgG1, kappa, V domains shown)
# VH: EVQLQQSGPELVKPGDSVKMSCKASGYTFTDYYMAWIKQNHGKSLEWIGYIYPNNGGTDYNQKFRGKATLTVDKSSSAAYMELHSLTSEDSAVYYCAREIGTLYGDYYAMDYWGQGTSVTVSS
# VL: B3 VL with S50T, K79Q, R93S
# notes: also called chimeric antibody of murine CDH6-8
# B6: CHI-CDH6-9 (antibody, human IgG1, kappa, V domains shown)
# VH: QVQLQQPGAELVKPGASVKLSCKASGYTFTGYWMHWVRQRPGQGLEWIGEINPNNGGTNCNEQFKNKATLTVDKSSSTAYMQLSSLTSEDSAVFYCTISFGNYLFFDVWGAGTTVTVSS
# VL: DIQMTQSPASLAASVGETITITCQASENIYFSLAWYQQKQGKSPQLLIYNANTLEDGVPSRFVGSGSGTQYSMKINSIQPEDTATYFCDQTYDFPWTFGGGTKLEIKR
# notes: also called chimeric antibody of murine CDH6-9
# B7: CHI-CDH6-10 (antibody, human IgG1, kappa, V domains shown)
# VH: QVQLQQPGAELVKPGTSVKMSCKASGYTFTSDWIAWVKQRPGQGLEWIGDIYPGSGRTHNNEKFNFKATLTVDTSSNTAYMQLSSLTSEDSAVYFCARPMLGRFDYWGQGTTLTVSS
# VL: DIVLTQSPASLAVSLGQRATISCRASESVSIHGTHLMHWYQQKPGQPPKLLIYAASNLESGVPARFSGSGSETDFTLNIHPVEEEDAATYFCQQSFEDPFTFGSGTKLEIKR
# notes: also called chimeric antibody of murine CDH6-10
# B8: CHI-CDH6-3 (antibody, human IgG1, kappa, V domains shown)
# VH: QVQLQQPGAELVKPGASVKLSCKASGYTFTSYWIHWVKQRPGQGLEWIGEINPSNGVTNCNENFKSKATLTVDKSSSTAYMQLSSLTSEDSAVYYCTIPNLLWWYFDVWGAGTTVTVSS
# VL: DIQMTQSPASLSVSVGETVTITCRASENIYSNLAWYQQKQGKSPQLLVYEATNLADGVPSRFSGSGSGTQYSLKINSLQSEDFGSYYCQHFWGTLWTFGGGTKLEIKR
# notes: also called CH1-CDH6-3; chimeric antibody of murine CDH6-3
# B9: CHI-CDH6-5 (antibody, human IgG1, kappa, V domains shown)
# VH: QVQLQQSGAELVRPGTSVKMSCKAAEYTFTNYWIGWVKQRPGHGLEWIGDLYPGGDHANYNEKFEGKATLTADTSSSTAYMQLSSLTSEDSAIYYCARGMLTTGFDSWGQGTTLTVSS
# VL: DIVMSQSPSSLAVSAGEKVTMSCKSSQSLFNSRTRKNYLAWYQQKPGQSPKLLIYWASTRESGVPDRFTGSGSGTDFTLTISSVQAEDLAVYYCKQSYYLRTFGGGTKLEIKR
# notes: also called CH1-CDH6-5; chimeric antibody of murine CDH6-5
# B10: CHI-CDH6-2 (antibody, human IgG1, kappa, V domains shown)
# VH: EVQLQQSGPELVKPGASVRISCKASGYTFTDYYMNWVKQSHGKSLEWIGDIDPNNANTTYNQKFKGKATLTVDKSSSTAYMELRSLTSEDSAVYSCASFGYDVEWFGYWGQGTLVTVSA
# VL: QIVLTQSPALMSASPGEKVTMTCSASSSVSYMYWYQQKPRSSPKPWIYLTSNLASGVPARFSGSGSGTSYSLTISSMEAEDAATYYCQQWSSNPFTFGSGTKLEIKR
# notes: also called chimeric antibody of murine CDH6-2
# B11: CHI-CDH6-13 (antibody, human IgG1, kappa, V domains shown)
# VH: DVQLQESGPGLVKPSQSLSLTCSVTGYSITKDSYWNWIRQFPGSKLEWMGFISYDGSRHYNPSLKNRISITRDTSKNQFFLQLNSVTTEDTATYYCARRDYADYWGQGTTLTVSS
# VL: B10 VL with S14F, S26T, M32I, S75N, M77L, N93I, F95Y, S99G
# notes: also called chimeric antibody of murine CDH6-13
# Assays:
# [1] = biological target: T1, human CDH6 with EC1 removed, on HEK293T …; assay: FACS, HEK293T-hCDH6-EC1 deletion cells
# [2] = biological target: T2, human CDH6 with EC5 removed, on HEK293T …; assay: FACS, HEK293T-hCDH6-EC5 deletion cells
# Excerpt: To confirm the binding epitope of the CDH6 antibody, the sequences after removal of these 5 regions were constructed into pcDNA3.1 vectors (purchased from Youbio, Cat. No. VT1001), and transfected into HEK293T cells (purchased from Cell Bank of Chinese Academy of Sciences, Cat. No. SCSP-502) to obtain 5 CDH6 truncated cell lines: HEK293T-hCDH6-EC1 deletion, HEK293T-hCDH6-EC2 deletion, HEK293T-hCDH6-EC3 deletion, HEK293T-hCDH6-EC4 deletion, and HEK293T-hCDH6-EC5 deletion.
# The binding activity of the CDH6 chimeric antibodies to these 5 cell lines was assayed by FACS.
# [3] = biological target: T3, his-tagged human CDH6 extracellular …; assay: SPR Biacore 8K, antibody captured on Protein A
# Experimental: The affinity of the antibody for the antigen was determined by a multi-cycle kinetic method using a BIAcore 8K instrument. In each cycle, the antibody to be tested was captured using a Protein A chip (purchased from GE, Cat. No. 29-1275-56), and then the antigen human CDH6 protein (hCDH6-his, conventionally synthesized) was injected. The association and dissociation processes of the antibody with the antigen protein were recorded, and finally, the chip was regenerated using Glycine pH 1.5, wherein the mobile phase was HBS-EP+ (10 mM HEPES, 150 mM NaCl, 3 mM EDTA, 0.05% surfactant P20, and 1 mM Ca), the flow rate was 30 μL/min, the association time was 240 s, the dissociation time was 300 s, the regeneration time was 30 s, the detection temperature was 25° C., and the antigen concentration was 31.25-1000 nM. The data were analyzed using Biacore 8K analysis software (version No. 2.0) based on the 1:1 binding model to fit the antibody-antigen binding kinetic parameters, including the association rate constant ka, the dissociation rate constant kd, and the equilibrium dissociation constant KD. The affinity values of the control antibody DS-H01L02 were undetectable. Antibodies not shown in the table had undetectable affinity values.
Binder,Max MFI [1] [MFI],Max MFI [2] [MFI],Kd [3] [nM],koff [3] [s⁻¹],kon [3] [M⁻¹ s⁻¹]
B1,10200,6540,–,–,–
B2,–,–,5.72,0.000201,35200
B3,–,–,58.6,0.00508,86800
B4,88,1020,–,–,–
B5,–,–,31.2,0.00378,121000
B6,–,–,138,0.00159,11600
B7,–,–,20.3,0.00364,179000
B8,11100,5610,–,–,–
B9,112,4240,–,–,–
B10,–,–,3.68,0.00185,503000
B11,–,–,78.1,0.00184,23600
